As a reminder, the Kd is the constant that tells how readily two partners part at equilibrium.

The values below come from patent US20240110004 (published 2024).

Where no end group is shown, it is not given here.

The assay concerns the target VCP (UniProt P55072). The assay can be described thus: BLI, VCP immobilized on anti-HIS sensor, analyte in Tris pH 8.4, multivalent. For orientation: BLI is a label-free optical method that tracks binding on a fibre tip over time.

Sequence of VCP (P55072 2-806): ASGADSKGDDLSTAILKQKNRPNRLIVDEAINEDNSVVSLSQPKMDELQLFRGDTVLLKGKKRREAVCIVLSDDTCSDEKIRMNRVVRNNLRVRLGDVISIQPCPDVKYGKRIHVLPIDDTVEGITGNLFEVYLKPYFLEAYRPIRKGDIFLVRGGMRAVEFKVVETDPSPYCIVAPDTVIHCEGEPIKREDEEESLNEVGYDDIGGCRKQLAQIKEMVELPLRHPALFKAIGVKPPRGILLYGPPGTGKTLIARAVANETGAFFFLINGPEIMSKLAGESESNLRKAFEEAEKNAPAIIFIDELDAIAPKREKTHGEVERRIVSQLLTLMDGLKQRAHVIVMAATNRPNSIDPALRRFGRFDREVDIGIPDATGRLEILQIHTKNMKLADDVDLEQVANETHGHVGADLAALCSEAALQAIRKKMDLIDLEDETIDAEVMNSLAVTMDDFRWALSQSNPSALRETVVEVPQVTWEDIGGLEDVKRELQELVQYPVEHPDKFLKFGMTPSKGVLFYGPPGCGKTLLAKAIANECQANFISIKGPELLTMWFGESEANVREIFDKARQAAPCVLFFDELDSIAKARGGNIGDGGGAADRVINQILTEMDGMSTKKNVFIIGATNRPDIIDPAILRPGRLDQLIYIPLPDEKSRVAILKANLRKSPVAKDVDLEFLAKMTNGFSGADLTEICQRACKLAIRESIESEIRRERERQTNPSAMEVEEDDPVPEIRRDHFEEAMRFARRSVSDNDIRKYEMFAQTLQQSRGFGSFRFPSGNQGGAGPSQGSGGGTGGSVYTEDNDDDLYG

As for HVLVMSATRR (not fully specified (N-terminus); also: multivalent polymer conjugate) [P1], binding was put at a Kd of 92 nM. That is a double-digit nanomolar value.
